# “Also recorded” adds a separate entry of the source.
# Columns and labels:
# [1] = tested on: CD40-expressing target cells; experiment: Antibody dependent cellular cytotoxicity (ADCC); format: cell-based; conditions: native antibodies
# Description: (§1) 2, 2000, and PCT International Application No. PCT/US01/30857, also titled “Human Anti-CD40 Antibodies,” filed Oct. 2, 2001, both of which are herein incorporated by reference in their entirety.
# Clones from 7 other hybridomas were identified as having antagonistic activity. Based on their relative antagonistic potency and ADCC activities, two hybridoma clones were selected for further evaluation (Table 1 below). They are named 131.2F8.5.9 (5.9) and 153.8E2.D10.D6.12.12 (12.12).
# [2] = target: soluble CD40 (Homo sapiens, UniProt P25942); experiment: ELISA-type assay, binding to soluble CD40; conditions: ELISA-type assays
# Chain of soluble CD40 (P25942 21-193 limits assumed): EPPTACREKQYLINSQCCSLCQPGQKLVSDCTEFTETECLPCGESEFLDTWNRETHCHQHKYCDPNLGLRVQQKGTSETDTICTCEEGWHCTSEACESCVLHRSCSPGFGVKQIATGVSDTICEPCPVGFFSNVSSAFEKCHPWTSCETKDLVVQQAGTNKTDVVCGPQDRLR
# Description: as §1
# [3] = target: cell-surface CD40 (Homo sapiens, UniProt P25942); experiment: Flow cytometric (FACS) assay of CD40 binding and CD40-ligand blocking
# Chain of cell-surface CD40 (P25942 21-277): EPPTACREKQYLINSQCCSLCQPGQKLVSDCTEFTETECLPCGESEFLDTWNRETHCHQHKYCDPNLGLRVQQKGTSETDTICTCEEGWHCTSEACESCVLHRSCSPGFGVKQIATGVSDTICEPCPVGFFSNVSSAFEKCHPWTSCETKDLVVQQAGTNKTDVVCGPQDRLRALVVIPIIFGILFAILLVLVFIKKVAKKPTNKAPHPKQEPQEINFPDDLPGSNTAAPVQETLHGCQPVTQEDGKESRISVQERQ
# Description: as §1
# [4] = tested on: B cells from normal human subjects; experiment: In vitro proliferation of normal human B cells / lymphocytes; format: cell-based
# Description: as §1
# (§2) 4, 2003, Nov. 26, 2003, and Apr. 27, 2004, and assigned U.S. Patent Application Nos. 60/517,337 , 60/525,579, and 60/565,710, respectively, and International Patent Application No. PCT/US2004/037152, also entitled “Antagonist Anti-CD40 Monoclonal Antibodies and Methods for Their Use,” filed Nov. 4, 2004; the contents of each of which are herein incorporated by reference in their entirety.
# [5] = tested on: cancer cells from NHL and CLL patients; experiment: In vitro CD40 ligand-mediated proliferation of patient cancer cells; format: cell-based, human
# Description: as §2
# [6] = tested on: primary cancer cells from NHL patients; experiment: ADCC on primary cancer cells; format: cell-based, human; conditions: in vitro
# Description: as §2
# [7] = tested on: monocytes; experiment: CD40L-induced cytokine secretion, Meso Scale Discovery multi-array; format: cell-based, human; conditions: monocytes, Donor 1, 24 hours
# Procedure: (§3) Cells (1×10^5 cells per well) were cultured in a 96-well plate in the presence or absence of CD40L ([…], formaldehyde fixed CHO cells, 2×10^5 per well). […] Production of hIL-6, hIL-8, hIL-10, hTNF-α; hGM-CSF, hIL-1b, hIL-12p70, MCP-1, and MIP-1β beta was measured by Meso Scale Discovery® multi-array system (Meso Scale Discovery, Gaithersburg, Md.).
# [8] = tested on: normal B cells; experiment: as above; format: cell-based, human; conditions: normal B cells
# Procedure: as §3
Molecule,"ADCC activity, killing of CD40-expressing target cells [1]",binding to soluble CD40 [2],specific binding to human CD40 ([3]; FACS analysis),displacement of CD40-ligand pre-bound to cell surface CD40 ([3]; flow cytometric assays),prevention of CD40-ligand binding to cell-surface CD40 ([3]; flow cytometric assays),effect on CD40 ligand-mediated proliferation of normal B cells ([4]; in vitro),"induction of proliferation of human lymphocytes (agonist activity) ([4]; lymphocytes from normal subjects, antibody alone)",CD40 ligand-mediated proliferation of cancer cells [5],killing of primary cancer cells by ADCC [6],"CD40L-induced hGM-CSF secretion, folds of induction over background [7]","CD40L-induced hIL1-b secretion, folds of induction over background [7]","CD40L-induced hIL-12p70 secretion, folds of induction over background [7]","CD40L-induced hGM-CSF secretion, folds of induction over background ([8]; Donor 1, 24 hours)","CD40L-induced hIL-1b secretion, folds of induction over background ([8]; Donor 1, 24 hours)","CD40L-induced hIL-12p70 secretion, folds of induction over background ([8]; Donor 1, 24 hours)","CD40L-induced hIL-1b secretion, folds of induction over background ([8]; Donor 2, 24 hours)","CD40L-induced hGM-CSF secretion, folds of induction over background ([8]; Donor 3, 24 hours)","CD40L-induced hIL-1b secretion, folds of induction over background ([8]; Donor 3, 24 hours)","CD40L-induced hIL-12p70 secretion, folds of induction over background ([8]; Donor 3, 24 hours)"
"CHIR-5.9: fully human anti-CD40 monoclonal antibody of the IgG1 isotype, hybridoma 131.2F8.5.9, ATCC PTA-5542, SEQ ID NO:6 and 7",have ADCC activity; also recorded: able to kill CD40-expressing target cells,bind soluble CD40,bind specifically to human CD40,displace the pre-bound CD40-ligand; also recorded: can compete off CD40-ligand pre-bound to cell surface CD40,prevent the binding of CD40-ligand to cell-surface CD40; also recorded: can prevent CD40-ligand binding,act as antagonist anti-CD40 antibodies; also recorded: inhibit in vitro CD40 ligand-mediated proliferation of normal B cells,do not induce strong proliferation,inhibiting in vitro CD40 ligand-mediated proliferation of cancer cells from NHL and CLL patients,kill primary cancer cells from NHL patients by ADCC,–,–,–,–,–,–,–,–,–,–
"CD40L: CD40 ligand used as stimulus, presented on transfected, formaldehyde fixed CHO cells (protein, expressed on fixed CHO cells) MIETYNQTSPRSAATGLPISMKIFMYLLTVFLITQMIGSALFAVYLHRRLDKIEDERNLHEDFVFMKTIQRCNTGERSLSLLNCEEIKSQFEGFVKDIMLNKEETKKENSFEMQKGDQNPQIAAHVISEASSKTTSVLQWAEKGYYTMSNNLVTLENGKQLTVKRQGLYYIYAQVTFCSNREASSQAPFIASLCLKSPGRFERILLRAANTHSSAKPCGQQSIHLGGVFELQPGASVFVNVTDPSQVSHGTGFTSFGLLKL",–,–,–,–,–,–,–,–,–,no induction,no induction,no induction,no induction,no induction,no induction,no induction,no induction,no induction,no induction
